Experimental findings from article PMC2733336 (Insect biochemistry and molecular biology, 2009) are described below.

The target of data set [1] is T1, cLac2 (endogenous cuticular laccase-2) (Manduca sexta, UniProt Q8I8Y0).
T1 sequence (Q8I8Y0 142-760): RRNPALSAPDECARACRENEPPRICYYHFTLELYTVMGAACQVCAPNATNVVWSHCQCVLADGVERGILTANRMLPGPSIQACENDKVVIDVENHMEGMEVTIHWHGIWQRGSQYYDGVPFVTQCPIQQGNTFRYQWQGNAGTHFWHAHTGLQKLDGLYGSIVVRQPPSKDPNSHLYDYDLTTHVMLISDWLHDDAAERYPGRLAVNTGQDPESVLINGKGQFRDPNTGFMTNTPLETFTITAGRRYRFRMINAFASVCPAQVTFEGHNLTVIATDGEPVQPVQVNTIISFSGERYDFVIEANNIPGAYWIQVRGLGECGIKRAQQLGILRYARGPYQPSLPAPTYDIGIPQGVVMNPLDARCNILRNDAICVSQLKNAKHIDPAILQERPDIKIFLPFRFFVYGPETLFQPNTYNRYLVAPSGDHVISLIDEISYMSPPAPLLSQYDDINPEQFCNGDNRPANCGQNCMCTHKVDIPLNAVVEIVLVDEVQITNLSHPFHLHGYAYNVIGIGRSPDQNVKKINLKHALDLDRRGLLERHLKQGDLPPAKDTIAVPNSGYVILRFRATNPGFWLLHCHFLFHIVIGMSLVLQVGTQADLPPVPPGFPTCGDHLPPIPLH
Put plainly: spectrophotometric, quinone formation at […] nm. Conditions: substrate inhibition (uncompetitive) constant; 100 mM sodium citrate pH 5; air. It is filed as biochemical.

The target of data set [2] is T2, rLac2 (full-length recombinant laccase-2) (Manduca sexta, UniProt Q8I8Y0).
T2 sequence (Q8I8Y0 24-760): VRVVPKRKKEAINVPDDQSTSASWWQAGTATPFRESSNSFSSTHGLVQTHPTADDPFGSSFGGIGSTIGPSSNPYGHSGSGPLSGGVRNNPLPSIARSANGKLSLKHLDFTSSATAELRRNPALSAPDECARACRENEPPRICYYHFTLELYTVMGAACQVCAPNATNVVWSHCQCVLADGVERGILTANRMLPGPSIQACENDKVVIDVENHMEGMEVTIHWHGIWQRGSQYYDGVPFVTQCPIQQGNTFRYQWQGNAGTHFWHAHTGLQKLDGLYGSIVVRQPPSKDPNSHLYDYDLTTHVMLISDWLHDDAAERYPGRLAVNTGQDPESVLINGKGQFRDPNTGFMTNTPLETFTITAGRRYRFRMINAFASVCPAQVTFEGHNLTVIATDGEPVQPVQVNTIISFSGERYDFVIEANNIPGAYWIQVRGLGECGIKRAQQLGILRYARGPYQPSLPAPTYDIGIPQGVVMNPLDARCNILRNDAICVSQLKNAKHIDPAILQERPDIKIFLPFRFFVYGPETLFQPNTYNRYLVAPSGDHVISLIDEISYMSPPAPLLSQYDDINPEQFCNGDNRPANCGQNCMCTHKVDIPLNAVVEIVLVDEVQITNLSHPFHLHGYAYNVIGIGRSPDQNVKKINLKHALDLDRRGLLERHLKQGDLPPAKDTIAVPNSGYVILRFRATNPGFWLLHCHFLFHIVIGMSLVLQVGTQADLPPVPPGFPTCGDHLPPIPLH
Put plainly: spectrophotometric, quinone formation at […] nm. It is filed as biochemical. Conditions: substrate inhibition (uncompetitive) constant; 100 mM sodium citrate pH 5; air.

Substrate in data set [3]: CCn1c(=NN=c2sc3cc(S(=O)(=O)O)ccc3n2CC)sc2cc(S(=O)(=O)O)ccc21
Nature of the data set: purified protein. The data set is classed as biochemical, Manduca sexta. The note with it: 100 mM sodium citrate pH 5, air, data not shown.

Substrate in data set [4]: CC(=O)NCCc1ccc(O)c(O)c1
Nature of the data set: purified protein. Conditions: 100 mM sodium citrate pH 5, air. The data set is classed as biochemical, Manduca sexta.

As to `NCCC(=O)NCCc1ccc(O)c(O)c1` [NBAD], the “Ksi” value in data set [1] was found to be 9.7 ± 1.3 mM; in data set [2] it was 6.7 ± 1.4 mM.

B1: cLac2 (endogenous cuticular laccase-2) (Manduca sexta) (protein)
chain: RRNPALSAPDECARACRENEPPRICYYHFTLELYTVMGAACQVCAPNATNVVWSHCQCVLADGVERGILTANRMLPGPSIQACENDKVVIDVENHMEGMEVTIHWHGIWQRGSQYYDGVPFVTQCPIQQGNTFRYQWQGNAGTHFWHAHTGLQKLDGLYGSIVVRQPPSKDPNSHLYDYDLTTHVMLISDWLHDDAAERYPGRLAVNTGQDPESVLINGKGQFRDPNTGFMTNTPLETFTITAGRRYRFRMINAFASVCPAQVTFEGHNLTVIATDGEPVQPVQVNTIISFSGERYDFVIEANNIPGAYWIQVRGLGECGIKRAQQLGILRYARGPYQPSLPAPTYDIGIPQGVVMNPLDARCNILRNDAICVSQLKNAKHIDPAILQERPDIKIFLPFRFFVYGPETLFQPNTYNRYLVAPSGDHVISLIDEISYMSPPAPLLSQYDDINPEQFCNGDNRPANCGQNCMCTHKVDIPLNAVVEIVLVDEVQITNLSHPFHLHGYAYNVIGIGRSPDQNVKKINLKHALDLDRRGLLERHLKQGDLPPAKDTIAVPNSGYVILRFRATNPGFWLLHCHFLFHIVIGMSLVLQVGTQADLPPVPPGFPTCGDHLPPIPLH
As a reminder, the Km is the concentration of substrate that gives half-maximal velocity. In general, kcat refers to the maximal rate divided by the concentration of active sites. A word on the Vmax: it is the rate approached at saturating substrate. As a reminder, the kcat/Km is the turnover number divided by the Michaelis constant. For the molecule B1, in the data set “purified protein [3]”, the Km amounted to 1500 µM and the catalytic constant (kcat) is 7.67 s⁻¹. In addition, in the data set “purified protein [4]”, the Michaelis-Menten constant (Km) came to 630 ± 50 µM, the maximum rate (Vmax) came out at 10.5 ± 0.25 µM/min, the kcat was found to be 4.83 ± 0.117 s⁻¹ and the kcat/Km was determined as 7670 M⁻¹ s⁻¹.

B2: rLac2 (full-length recombinant laccase-2) (Manduca sexta) (protein)
chain: VRVVPKRKKEAINVPDDQSTSASWWQAGTATPFRESSNSFSSTHGLVQTHPTADDPFGSSFGGIGSTIGPSSNPYGHSGSGPLSGGVRNNPLPSIARSANGKLSLKHLDFTSSATAELRRNPALSAPDECARACRENEPPRICYYHFTLELYTVMGAACQVCAPNATNVVWSHCQCVLADGVERGILTANRMLPGPSIQACENDKVVIDVENHMEGMEVTIHWHGIWQRGSQYYDGVPFVTQCPIQQGNTFRYQWQGNAGTHFWHAHTGLQKLDGLYGSIVVRQPPSKDPNSHLYDYDLTTHVMLISDWLHDDAAERYPGRLAVNTGQDPESVLINGKGQFRDPNTGFMTNTPLETFTITAGRRYRFRMINAFASVCPAQVTFEGHNLTVIATDGEPVQPVQVNTIISFSGERYDFVIEANNIPGAYWIQVRGLGECGIKRAQQLGILRYARGPYQPSLPAPTYDIGIPQGVVMNPLDARCNILRNDAICVSQLKNAKHIDPAILQERPDIKIFLPFRFFVYGPETLFQPNTYNRYLVAPSGDHVISLIDEISYMSPPAPLLSQYDDINPEQFCNGDNRPANCGQNCMCTHKVDIPLNAVVEIVLVDEVQITNLSHPFHLHGYAYNVIGIGRSPDQNVKKINLKHALDLDRRGLLERHLKQGDLPPAKDTIAVPNSGYVILRFRATNPGFWLLHCHFLFHIVIGMSLVLQVGTQADLPPVPPGFPTCGDHLPPIPLH
As to B2, in the data set “purified protein [4]”, the Michaelis-Menten constant (Km) was 460 ± 50 µM, the Vmax stood at 3.1 ± 0.1 µM/min, the catalytic constant (kcat) amounted to 1.67 ± 0.05 s⁻¹ and the kcat/Km was 3670 M⁻¹ s⁻¹.
